These results are taken from patent US20140287029A1 (US Dept. of Health and Human Services, published 2014).

The target in this experiment is T1, HLA-A2 molecules on T2 cells (human).
T1 construct: whole, on cells; MHC class I molecule on the surface of T2 cells
Put plainly: T2 cell-binding assay, flow cytometry of HLA-A2 on T2 cells, peptide 25 µg/mL. From the text: The T2 binding values are expressed in mean fluorescence intensity. The values in parentheses are fold increases as compared with the negative control (CAP-7 peptide).
(In flow cytometry, cells or beads pass a laser one at a time.)

B1: NGEP peptide P143 (peptide)
peptide: FLDNIRAAGL
notes: Synthetic peptide, purity >95%; also called P143 (5)
In the case of B1, the “T2 Binding (mean fluorescence intensity)” value stood at 203 MFI and the “fold increase compared with the negative control (CAP-7 peptide)” value (from here on “fold increase”) is 2.3 fold.

B2: NGEP peptide P170 (L) (peptide)
peptide: ALLSASWAV
notes: Synthetic peptide, purity >95%; positions counted on the NGEP long form (L)
For the molecule B2, the “T2 Binding (mean fluorescence intensity)” value came to 185 MFI and the “fold increase” value came to 2.1 fold.

B3: NGEP peptide P215 (L) (peptide)
peptide: VLLEVVPDV
notes: as for B2
Regarding B3, the “T2 Binding (mean fluorescence intensity)” value turned out to be 464 MFI and the “fold increase” value turned out to be 5.2 fold.

B4: NGEP peptide P356 (L) (peptide)
peptide: WLLPAAVVGT
notes: as for B2
With B4, the “T2 Binding (mean fluorescence intensity)” value was found to be 354 MFI and the “fold increase” value was found to be 4 fold.

B5: NGEP peptide P10 (S) (peptide)
peptide: GLGGPPLPTL
notes: Synthetic peptide, purity >95%; positions counted on the NGEP short form (S)
With B5, the “T2 Binding (mean fluorescence intensity)” value is 212 MFI and the “fold increase” value was 2.4 fold.

B6: NGEP peptide P113 (S) (peptide)
peptide: LVWEEDLKL
notes: as for B5
B6: the “T2 Binding (mean fluorescence intensity)” value came to 367 MFI and the “fold increase” value was 4.1 fold.

B7: NGEP peptide P855 (L) (peptide)
peptide: IVFEHVVFSV
notes: as for B2
Turning to B7, the “T2 Binding (mean fluorescence intensity)” value stood at 203 MFI and the “fold increase” value is 2.3 fold.

B8: NGEP peptide P703 (L) (peptide)
peptide: GLFDEYLEMV
notes: Synthetic peptide, purity >95%; positions counted on the NGEP long form (L); also called NGEP-P703
For the molecule B8, the “T2 Binding (mean fluorescence intensity)” value was 565 MFI and the “fold increase” value was 6.4 fold.

B9: NGEP peptide P258 (L) (peptide)
peptide: ILFEILAKT
notes: as for B2
Turning to B9, the “T2 Binding (mean fluorescence intensity)” value is 280 MFI and the “fold increase” value is 3.1 fold.

B10: NGEP peptide P846 (L) (peptide)
peptide: LLAIRLWAV
notes: as for B2
Take B10: the “T2 Binding (mean fluorescence intensity)” value stood at 126 MFI and the “fold increase” value is 1.4 fold.

B11: MUC-1 (P1240) peptide (peptide)
peptide: SLSYTNPAV
notes: Synthetic control peptide, purity >95%; also called positive control peptide
With B11, the “T2 Binding (mean fluorescence intensity)” value was determined as 452 MFI and the “fold increase” value came to 5.1 fold.
